Assay results published in US20240417462A1 (SHANGHAI CELGEN BIO PHARMACEUTICAL, published 2024).
Positions count from the first letter of the chain named. Values joined by “and” are separate entries in the source; they are usually repeats but may differ in a detail not shown here. Equal entries are not always repeated. Where two headings read alike, the source gives them in different places. One block for each binder: values may come before it.

Assays:
[1] = biological target: T1, recombinant human TIGIT (Human TIGIT His, Sino Biological, 10917-H08H) (human, UniProt Q495A1 22-138); assay: ELISA, coated human TIGIT-His
T1 construct: range 1-138; bought; also called hTIGIT
T1 sequence (looked up): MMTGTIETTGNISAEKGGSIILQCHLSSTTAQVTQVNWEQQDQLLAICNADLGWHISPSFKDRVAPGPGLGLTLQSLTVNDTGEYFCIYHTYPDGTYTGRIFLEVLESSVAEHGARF

[2] = biological target: T1, recombinant human TIGIT (Human TIGIT …); assay: competition ELISA, coated TIGIT-His, CD155-Fc as competitor
Procedure: In order to evaluate the competition between the anti-human TIGIT mouse monoclonal antibody and CD155 (Human CD155 (Fc Tag): Sino Biological, 10109-H02H) for binding to recombinant human TIGIT (Human TIGIT(His), Sino Biological, 10917-H08H), ELISA detection was performed, and the specific steps were as follows:
Primary antibody incubation: the plate was washed twice with PBS (250 μl/well), and patched dry. 6 μg/ml of CD155 was respectively diluted in a binding solution and added into a 96-well dilution plate at 60 μl/well. Then the screened hybridoma antibody was diluted with the binding solution, (the highest concentration was 30 μg/ml), and diluted to 3 times of concentration, and added into the corresponding dilution plate above at 60 μl/well. After mixing well, the sample was added to the coated 96-well ELISA plate at 100 μl/well. The plate was sealed with a sealing film and placed at 37° C. for 1.5 hours.
Secondary antibody incubation: the blocking solution was discarded, the plate was washed with 250 μl PBST for 3 times, and patched dry.

[3] = biological target: T2, recombinant cynomolgus monkey TIGIT (cynomolgus monkey, UniProt A0A7N9I9V4 89-209); assay: ELISA, coated cynomolgus TIGIT
T2 construct: construct not described; also called cynomolgus TIGIT
T2 sequence (A0A7N9I9V4 entry or part of it): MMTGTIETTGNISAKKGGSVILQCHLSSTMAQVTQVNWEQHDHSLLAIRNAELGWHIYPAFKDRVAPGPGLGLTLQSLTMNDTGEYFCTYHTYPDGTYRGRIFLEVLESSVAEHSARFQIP
Procedure: (§1) The cynomolgus monkey or mouse TIGIT antigen of was coated with the same method as above, the anti-human TIGIT mouse monoclonal antibody was diluted in gradient, and then the anti-mouse Fab secondary antibody was added (Jackson Immuno Research, 515-035-072) for TMB development. ELISA was used to detect the binding of 8 mouse monoclonal antibodies to recombinant cynomolgus monkey TIGIT.

[4] = biological target: T3, full-length human TIGIT expressed on CHO-K cell membrane (CHO-K-TIGIT) (human, UniProt Q495A1 22-244); assay: flow cytometry, CHO-TIGIT cells
T3 construct: whole, on cells; also called CHO-TIGIT; membrane TIGIT
T3 sequence (looked up): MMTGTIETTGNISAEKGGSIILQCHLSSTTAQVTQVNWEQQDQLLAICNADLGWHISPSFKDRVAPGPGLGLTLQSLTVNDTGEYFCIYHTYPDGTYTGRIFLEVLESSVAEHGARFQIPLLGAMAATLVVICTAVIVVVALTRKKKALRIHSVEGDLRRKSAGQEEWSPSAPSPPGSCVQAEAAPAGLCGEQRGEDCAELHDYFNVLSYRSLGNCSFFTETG

[5] = biological target: T2, recombinant cynomolgus monkey TIGIT; assay: ELISA, recombinant cynomolgus TIGIT coated, anti-mouse Fab secondary antibody, TMB, OD450/655nm
Procedure: as §1

mouse TIGIT antigen = biological target: T4, mouse TIGIT antigen (mouse, UniProt P86176 29-148, limits assumed); assay: ELISA, coated mouse TIGIT
T4 construct: construct not described; also called murine TIGIT
T4 sequence (looked up): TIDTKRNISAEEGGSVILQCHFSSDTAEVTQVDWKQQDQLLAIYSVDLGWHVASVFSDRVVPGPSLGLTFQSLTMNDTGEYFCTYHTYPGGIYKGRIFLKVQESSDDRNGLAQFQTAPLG
Procedure: as §1

[6] = biological target: T1, recombinant human TIGIT (Human TIGIT …); assay: ELISA, recombinant human TIGIT (His) coated, anti-human-Fc-AP, OD405/490
Procedure: (§2) Antigen hTIGIT (Human TIGIT (His), Sino Biological, 10917-H08H) was diluted into 1 μg/mL with a NaHCO₃ solution of pH 9.6, 50 μl per well was added to a 96-well ELISA plate, and placed overnight in refrigerator at 4° C.
(§3) In order to determine whether the humanized TIGIT monoclonal antibody of the present disclosure could bind to the recombinant human TIGIT protein, in vitro testing was performed. Murine antibodies and Tiragolumab (Tira) were used as positive controls. The experimental method was the same as in Example 3.1.

[7] = biological target: T1, recombinant human TIGIT (Human TIGIT …); assay: BLI, antibody captured on anti-human Fc probe, TIGIT-His in solution
[8] = biological target: T1, recombinant human TIGIT (Human TIGIT …); assay: competition ELISA, human TIGIT (His) coated, antibody titrated against fixed CD155, bound CD155 detected, OD450/655
[9] = biological target: T1, recombinant human TIGIT (Human TIGIT …); assay: BLI, antibody captured on anti-human Fc probe, TIGIT-His in solution; remark: listed apart in the source
Procedure: The dissociation constant (Kd) of the human mouse chimeric TIGIT monoclonal antibody was detected by using a GATORS (ProbeLife) detection instrument and an HFC (LOT #2007065 Tray 2), Human antibody Capture probe. The human mouse chimeric TIGIT monoclonal antibody was diluted to 30 nM in a binding buffer (Q buffer [PBS (10 mM PH7.4)+0.02% Tween 20+0.2% BSA]). The recombinant human TIGIT protein was diluted in Q buffer in a 2-fold gradient to different concentrations varying in the range of 40 nM to 10 nM. A kinetic correlation determination was initiated by placing an antibody capture sensor in the continuously diluted antigen solution described above. Octet Data Acquisition software was opened and New Kinetics Experiment-Basic Kinetics mode was selected.

[10] = biological target: T1, recombinant human TIGIT (Human TIGIT …); assay: competition ELISA, coated TIGIT-His, CD155-mFC as competitor
Procedure: Antigen TIGIT (Human TIGIT (His), Sino Biological, 10917-H08H) was diluted with pH 9.6 of NaHCO₃ solution into 1 μg/mL, 50 μL per well was added to a 96-well ELISA plate, and placed overnight at 4° C. in a refrigerator. The next day, after washing with PBS twice, plate was blocked with 3% BSA (100 μL per well) by incubating at 37° C. for 1.5 h, and washed 4 times with PBST.

[11] = biological target: T1, recombinant human TIGIT (Human TIGIT …); assay: ELISA, recombinant human TIGIT (His) coated, anti-human-Fc-AP, OD405/490; remark: listed apart in the source
Procedure: as §2, §3

EC50 [1]: 0.0647 nM
IC50 [2]: 0.178 nM
EC50 [3]: 1.07 nM
EC50 [4]: 0.499 nM
EC50 [5]: 0.16 µg/mL
binding result (mouse TIGIT antigen): no binding
B1: anti-human TIGIT mouse monoclonal antibody 7103-01 (antibody, V domains shown)
VH: QVQLQQPGAELVKPGASVKLSCKASGYTFISYNIYWVKQRPGQGLEWIGGVNPSNGNTNFNENFKSKATLTVDKSSSTAYMQLSSLTSDDSAVYFCTRGNYYGYEFAYWGQGTLVTVSA
VL: DIVMTQSHKFMSTSVGDRVSITCKASQHVSTAVAWYQQKPGQSPKLLIYSPSYRYTGVPDRFTGSGSGTDFTFTISSVQAEDLAVYYCQQHYSTPWTFGGGTKLEIK
notes: also called 31E10-2-1

EC50 [1]: 0.0674 nM
IC50 [2]: 0.141 nM
EC50 [3]: 0.398 nM
EC50 [4]: 0.347 nM
EC50 [5]: 0.06 µg/mL
binding result (mouse TIGIT antigen): no binding
B2: anti-human TIGIT mouse monoclonal antibody 7103-03 (antibody, V domains shown)
VH: EVQLQQSGPELVKPGASVKISCKTSGYTFTEYTMHWVKQSHGKSLEWIGGINPNNGGTSYNQKFKGKATLTVDKSSSTAYMELRSLTSEDSAVYYCARGAYYRYDFDYWGQGTTLTVSS
VL: B1 VL with H28D, S30R, A34V, P51A
notes: also called 36H8-2-2

EC50 [1]: 0.0727 nM
IC50 [2]: 0.183 nM
EC50 [3]: 0.334 nM
EC50 [4]: 0.44 nM
EC50 [5]: 0.05 µg/mL
binding result (mouse TIGIT antigen): no binding
B3: anti-human TIGIT mouse monoclonal antibody 7103-04 (antibody, V domains shown)
VH: VQLQESGAELVKPGASVKLSCRASGYTFTDYFVYWVKQRPGQGLEWIGGINPSNGGATFNEKFKNKATLTVDTSSSTAYMQLSSLTSEDSAIYYCTRGNFYGYEFAYWGQGTLVTVSA
VL: B1 VL with M11I, A34V, S93I
notes: also called 40E6-2-2

EC50 [1]: 0.0393 nM
IC50 [2]: 0.0607 nM
EC50 [3]: 0.174 nM
EC50 [4]: 0.256 nM
EC50 [5]: 0.026 µg/mL
binding result (mouse TIGIT antigen): no binding
B4: anti-human TIGIT mouse monoclonal antibody 7103-06 (antibody, V domains shown)
VH: EEQLVESGGGLVKPGGTLKLSCAASGFTFSTYAMSWVRQSPEKRLEWVAEISSGGSYTYYSDTVTGRFTISRDNAKNTLYLEMSSLRSEDTAMYYCARKTLDYYALDYWGHGTSVTVSS
VL: DVQITQSPSYLAASPGETITINCRANKTISKYLAWYQEKPGKTNKLLIYSGSRLQSGIPSKFSGSGYGTDFTLTISSLEPEDFAMYYCQQHNEYPWTFGGGTKLEIK
notes: often printed as 7105-06; also called 7105-06; 47A2-1-2

EC50 [1]: 0.075 nM
IC50 [2]: 0.159 nM
EC50 [3]: 0.704 nM
EC50 [4]: 0.226 nM
EC50 [5]: 0.106 µg/mL
binding result (mouse TIGIT antigen): no binding
B5: anti-human TIGIT mouse monoclonal antibody 7103-07 (antibody, V domains shown)
VH: B4 VH with E2V, L4V, K43Q, Y57H, Y59F, K76Q, S84N, H111Q
VL: B4 VL with N26S, T28S, L104V
notes: also called 42C12-1-2

EC50 [6]: 0.0095 µg/mL
Kd [7]: 2.96 nM
koff [7]: 0.00169 s⁻¹
kon [7]: 573000 M⁻¹ s⁻¹
IC50 [8]: 0.041 µg/mL
Kd [9]: 1.72 nM
koff [9]: 0.00167 s⁻¹
kon [9]: 971000 M⁻¹ s⁻¹
EC50 [4]: 1.35 nM and 0.927 nM
IC50 [10]: 1.7 nM
B6: anti-human TIGIT human mouse chimeric monoclonal antibody 7103-07 (hFc) (antibody, V domains shown)
VH: B4 VH with E2V, L4V, K43Q, Y57H, Y59F, K76Q, S84N, H111Q
VL: B4 VL with N26S, T28S, L104V
notes: also called 7303-07 (hFc); human mouse chimeric antibody

EC50 [6]: 0.0242 µg/mL
EC50 [11]: 0.0806 µg/mL
IC50 [8]: 0.116 µg/mL
EC50 [4]: 1.36 nM and 3.84 nM and 1.72 nM
IC50 [10]: 5.24 nM
B7: Tiragolumab (antibody, V domains shown)
VH: EVQLQQSGPGLVKPSQTLSLTCAISGDSVSSNSAAWNWIRQSPSRGLEWLGKTYYRFKWYSDYAVSVKGRITINPDTSKNQFSLQLNSVTPEDTAVFYCTRESTTYDLLAGPFDYWGQGTLVTVSS
VL: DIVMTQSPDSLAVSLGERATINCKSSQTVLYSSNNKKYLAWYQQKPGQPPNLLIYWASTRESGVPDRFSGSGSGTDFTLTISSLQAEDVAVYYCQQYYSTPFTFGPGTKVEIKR
